The values that follow come from patent publication US20110124071A1, “METHODS AND COMPOSITIONS FOR PRODUCING HYDROCARBONS” (priority 2009, published 2011).

The subject of data set [1] is T1, Prochlorococcus marinus CCMP1986 PMM0532 (NP-892650; putative decarbonylase).
T1 sequence: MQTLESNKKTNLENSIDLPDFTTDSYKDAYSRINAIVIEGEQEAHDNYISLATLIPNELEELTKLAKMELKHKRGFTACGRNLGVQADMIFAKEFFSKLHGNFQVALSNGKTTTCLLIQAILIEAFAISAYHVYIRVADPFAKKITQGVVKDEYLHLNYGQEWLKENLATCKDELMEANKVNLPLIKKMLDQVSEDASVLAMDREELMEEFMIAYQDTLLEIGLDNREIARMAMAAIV

The subject of data set [2] is E. coli MG1655 ΔfadE lacZ::Ptrc ′tesA-fadD. The experiment in a line: Heterologous expression in a fatty acyl-CoA-producing E. coli strain, GC-MS. It counts as cell-based. The note with it: reductase coexpressed with a fatty aldehyde decarbonylase. An excerpt:
The genomic DNA encoding Acaryochloris marina MBIC11017 AM1—4041 (YP—001518340; putative fatty aldehyde decarbonylase) (SEQ ID NO: 9) was synthesized and cloned into the NdeI and XhoI sites of vector OP-183 (pACYC derivative) under the control of the Ptrc promoter. The resulting construct was cotransformed with OP80-PCC7942—1594 into E. coli MG1655 ΔfadE lacZ::Ptrc ′tesA-fadD. This strain expresses a cytoplasmic version of the E. coli thioesterase, ′TesA, and the E. coli acyl-CoA synthetase, FadD, under the control of the Ptrc promoter, and therefore produces fatty acyl-CoAs. The cells were grown at 37° C. in M9 minimal media supplemented with 100 μg/ml spectinomycin and 100 μg/ml carbenicillin. The cells were cultured and extracted as in Example 3 and analyzed by GC-MS as described in Example 1.
The genomic DNA encoding Synechocystis sp. PCC6803 sll0208 (NP_442147; putative fatty aldehyde decarbonylase) (SEQ ID NO: 3) was synthesized and cloned into the NdeI and XhoI sites of vector OP-183 (pACYC derivative) under the control of the Ptrc promoter. The genomic DNA encoding Synechocystis sp. PCC6803 sll0209 (NP_442146; acyl-ACP reductase) (SEQ ID NO: 68) was synthesized and cloned into the NcoI and EcoRI sites of vector OP-183 (pACYC derivative) under the control of the Ptrc promoter. The resulting constructs were cotransformed with into E. coli MG1655 ΔfadE lacZ::Ptrc ′tesA-fadD. This strain expresses a cytoplasmic version of the E. coli thioesterase, ′TesA, and the E. coli acyl-CoA synthetase, FadD, under the control of the Ptrc promoter, and therefore produces fatty acyl-CoAs. The cells were grown at 37° C. in M9 minimal media supplemented with 100 μg/ml spectinomycin and 100 μg/ml carbenicillin. The cells were cultured and extracted as in Example 3 and analyzed by GC-MS as described in Example 26.

Substrate in data set [3]: CCCCCCCCCCCCCCCCCC(=O)SCCNC(=O)CCNC(=O)[C@H](O)C(C)(C)COP(=O)(O)OP(=O)(O)OC[C@H]1O[C@@H](n2cnc3c(N)ncnc32)[C@H](O)[C@@H]1OP(=O)(O)O
The experiment in a line: acyl-ACP or acyl-CoA reductase enzyme assay, GC/MS. It is filed as biochemical. The note with it: other: in the presence of 2 mM NADPH; pH 7.5; 37.0 °C. On the procedure:
The genomic DNA encoding S. elongatus PCC7492 orf1594 (SEQ ID NO: 66) was cloned into the NcoI and XhoI sites of vector pET-28b under the control of the T7 promoter. The resulting PCC7942_orf1594 protein contained a C-terminal His-tag. An E. coli BL21 strain (DE3) (Invitrogen) was transformed with the plasmid and PCC7942_orf1594 protein was expressed and purified as described in Example 22. The protein solution was stored in the following buffer: 50 mM sodium phosphate, pH 7.5, 100 mM NaCl, 1 mM THP, 10% glycerol. Protein concentration was determined using the Bradford assay (Bio-Rad). 2 mg/ml of PCC7942 orf1594 protein was obtained.
To test PCC7942_orf1594 protein for acyl-ACP or acyl-CoA reductase activity, the following enzyme assays were set-up. 100 μl reactions were set-up in 50 mM Tris-HCl buffer at pH 7.5 with the following components at their respective final concentrations: 10 μM of purified PCC7942_orf1594 protein, 0.01-1 mM acyl-CoA or acyl-ACP, 2 mM MgCl2, 0.2-2 mM NADPH. The reactions were incubated for 1 h at 37° C. and where stopped by adding 100 μl ethyl acetate (containing 5 mg/l 1-octadecene as internal standard). […] 80 μl of the top layer were transferred into GC glass vials and analyzed by GC/MS as described in Example 26. The amount of aldehyde formed was calculated based on the internal standard.

For another data set, the system named is E. coli MG1655. The experiment in a line: Heterologous expression of putative aldehyde-generating enzyme alone in E. coli, GC-MS of extracts. It counts as cell-based. Conditions: enzyme expressed alone in E. coli MG1655, M9 minimal media, 37° C. How it is done:
The genomic DNA encoding Synechococcus elongatus PCC7942 orf1594 (YP—400611; putative aldehyde-generating enzyme) (SEQ ID NO: 65) was amplified and cloned into the NcoI and EcoRI sites of vector OP-80 (pCL1920 derivative) under the control of the Ptrc promoter. The resulting construct (“OP80-PCC7942—1594”) was transformed into E. coli MG1655 and the cells were grown at 37° C. in M9 minimal media with 1% (w/v) glucose as carbon source and supplemented with 100 μg/ml spectinomycin. When the culture reached OD600 of 0.8-1.0, it was induced with 1 mM IPTG and cells were grown for an additional 18-20 h at 37° C. Cells from 0.5 ml of culture were extracted with 0.5 ml of ethyl acetate. After sonication for 60 min, the sample was centrifuged at 15,000 rpm for 5 min. The solvent layer was analyzed by GC-MS as described in Example 1.
The genomic DNA encoding Cyanothece sp. ATCC51142 cce—1430 (YP—001802846; putative aldehyde-generating enzyme) (SEQ ID NO: 70) was amplified and cloned into the NcoI and EcoRI sites of vector OP-80 (pCL1920 derivative) under the control of the Ptrc promoter. The resulting construct was transformed into E. coli MG1655 and the cells were grown at 37° C. in M9 minimal media with 1% (w/v) glucose as carbon source and supplemented with 100 μg/ml spectinomycin. The cells were cultured and extracted as in Example 3 and analyzed by GC-MS as described in Example 26.
The genomic DNA encoding P. mariunus CCMP1986 PMM0533 (NP_892651; putative aldehyde-generating enzyme) (SEQ ID NO: 72) and Prochlorococcus mariunus CCMP1986 PMM0532 (NP_892650; putative decarbonylase) (SEQ ID NO: 19) were amplified and cloned into the NcoI and EcoRI sites of vector OP-80 and the NdeI and XhoI sites of vector OP-183, respectively. The resulting constructs were separately transformed and cotransformed into E. coli MG1655 and the cells were grown at 37° C. in M9 minimal media supplemented with 100 μg/ml spectinomycin and 100 μg/ml carbenicillin. The cells were cultured and extracted as in Example 3 and analyzed by GC-MS as described in Example 26.

For the molecule “Prochlorococcus marinus CCMP1986 PMM0533 (NP-892651; putative aldehyde-generating enzyme)”, in data set [1], the “fatty alcohol, alkane and alkene production (GC/MS) in E. coli MG1655, PMM0533 alone against PMM0533 coexpressed with PMM0532” value was “E. coli cells transformed with only the P. mariunus CCMP1986 PMM0533-bearing vector did not produce any fatty aldehydes or fatty alcohols. However, E. coli cells cotransformed with PMM0533 and PMM0532-bearing vectors produced hexadecanol, pentadecane and heptadecene”.

B1: PCC7942_orf1594 protein (Synechococcus elongatus PCC 7942 = FACHB-805) (protein)
chain: MFGLIGHLTSLEQARDVSRRMGYDEYADQGLEFWSSAPPQIVDEITVTSATGKVIHGRYIESCFLPEMLAARRFKTATRKVLNAMSHAQKHGIDISALGGFTSIIFENFDLASLRQVRDTTLEFERFTTGNTHTAYVICRQVEAAAKTLGIDITQATVAVVGATGDIGSAVCRWLDLKLGVGDLILTARNQERLDNLQAELGRGKILPLEAALPEADFIVWVASMPQGVVIDPATLKQPCVLIDGGYPKNLGSKVQGEGIYVLNGGVVEHCFDIDWQIMSAAEMARPERQMFACFAEAMLLEFEGWHTNFSWGRNQITIEKMEAIGEASVRHGFQPLALAI
notes: His-tag (C); made in house; host or cells: E. coli BL21 (DE3)
The term Km denotes the concentration of substrate that gives half-maximal velocity. In the case of B1, in the data set with octadecenoyl-ACP, the “Km for the reduction of octadecenoyl-ACP in the presence of 2 mM NADPH (in vitro reductase assay, GC/MS)” value worked out at 7.8 ± 2 µM. In addition, the “use of acyl-CoA as substrate to produce fatty aldehydes” value in data set [2] is on record as “able to use acyl-CoA as a substrate”. In addition, the Km in data set [3] stood at 45 ± 20 µM. Besides, the “production of fatty aldehydes and fatty alcohols” value in the data set on E. coli MG1655 is given as “generates aldehydes in vivo”.
